# Measurements published in PMC9428257 (2022).
# B1: yeast-displayed wild-type sBCMA (human BCMA extracellular domain, Met1-Ala54) [human] / human APRIL (a proliferation-inducing ligand) [human] (parent complex)
# chain 1: MLQMAGQCSQNEYFDSLLHACIPCQLRCSSNTPPLTCQRYCNASVTNSVKGTNA
# chain 2: AVLTQKQKKQHSVLHLVPINATSKDDSDVTEVMWQPALRRGRGLQAQGYGVRIQDAGVYLLYSQVLFQDVTFTMGQVVSREGQGRQETLFRCIRSMPSHPDRAYNSCYSAGVFHLHQGDILSVIIPRARAKLNLSPHGTFLGFVKL
# Variants of: B1
# Experiment: flow cytometry binding curve of yeast-displayed sBCMA
row,screen value,Variant
1,325,"chain 1 S16G, chain 1 H19Y, chain 1 T36A"
